Experimental data from patent US20230089604A1, “ANTI-ADSORPTION SOLUTION” (Universiteit Gent, priority 2019, published 2023).

Legend:
Type in all cases: physicochemical
[1] = Proof of concept (pivotal experiment): D-optimal design for the injection solvent and vial coating that minimize glass adsorption, UHPLC-MS/MS peak area
Description: 36 model peptides were selected for evaluation of the anti-adsorption diluent general functionality. The most suitable solvent composition and need of vial coating with the anti-adsorption diluent was evaluated via a D-optimal design model generated by Modde software (Umetrics, Umea, Sweden).
The peptides were analyzed at the concentration specified in Table 5. For model optimization, the analysis wizard was used. […] In the next step, the non-significant model terms (i.e. those not contributing to a higher R^2 and/or Q^2) were removed via the coefficient plot. Outliers in the residuals normal probability plot and the observed versus predicted plot were removed. The optimum was calculated using the optimizer tool of the Modde software.
Using the same UHPLC-MS/MS apparatus as previously described in the proof of principle, the column compartment was kept at 60° C. and the sample compartment at 10° C. respectively. […] The peptides analyzed using the HILIC amide or C18 column system are mentioned in Table 7. […]
To further investigate the wide applicability of this novel anti-adsorption diluent, 36 peptides were selected. […] The necessity of prior coating the vial with anti-adsorption diluent was also evaluated in the same D-optimal design model. Prior to this experiment, the LC-MS suitability of the anti-adsorption diluent was evaluated by injecting the anti-adsorption diluent as such. […]

[2] = Peptide stability by HPLC-PDA (0 h vs 3 h); settings: 1 mg/mL, 3 h at 20° C.
Description: The 3 h peptide stability was evaluated by high performance liquid chromatography equipped with a photo diode array detector.
The peptide stability of peptide […] (SEQ ID No: 1) was evaluated with HPLC-PDA and the Vydac Everest C18 column. The analytical solution (1 mg/mL) in acetonitrile/water (V/V)+0.1% m/V formic acid (i.e. matching solvent composition as the anti-adsorption diluent without hydrolysate components) was chromatographed with the gradient provided in Table 3. Analysis was performed with a Waters Alliance 2695 HPLC with a Waters 2695 Separations Module, combined with a Flow Through Needle, and a Waters 2996 Photodiode Array Detector with Empower 2 software for data acquisition (Waters, Milford, Mass., USA).
The peptide was injected at 0 h and 3 h.

[3] = Functional evaluation of anti-adsorption diluent from 3 sources (consecutive transfer to 5 glass inserts); settings: 100 ng/mL in 50/50 V/V water/acetonitrile + 0.1% m/V formic acid
Description: Functional evaluation of anti-adsorption diluent from 3 sources. The functionality of anti-adsorption diluent Source 1, Source 2, and Source 3 was evaluated via the peptide […] (SEQ ID No. 1). The peptide was diluted in either solvent (50/50 V/V water/acetonitrile supplemented with 0.1% m/V formic acid) or in 1 of the 3 anti-adsorption diluent sources to a peptide concentration of 100 ng/mL. The solution was either transferred to an insert and immediately analyzed via UHPLC-MS/MS or repeatedly transferred to inserts (5 inserts in total), with analysis of the 5th insert. UHPLC-MS/MS was carried out as previously discussed in the proof of principle (pilot experiment)-section. To prevent peptide degradation, each sample was prepared immediately prior to injection. Per condition 3 replicates were analyzed.
The pilot and pivotal experiments were carried out using anti-adsorption diluent originating from Source 1. Since Bovine Serum Albumin can differ amongst suppliers, anti-adsorption diluent was prepared originating from 3 sources, referred to as Source 1, Source 2, and Source 3. […] (100 ng/mL analytical concentration) was evaluated and (II) the peptide solution was repeatedly transferred from one insert to another (5 inserts in total) with subsequent analysis of the 5th insert. […]

[4] = Anti-adsorption diluent applicability for polypropylene inserts; settings: 100 ng/mL, polypropylene insert, anti-adsorption diluent Source 1
Description: Anti-adsorption diluent applicability for polypropylene inserts. The functionality of the anti-adsorption diluent Source 1 in polypropylene inserts was evaluated via the peptide […] (100 ng/mL). The peptide was analyzed in (I) a glass insert with 50/50 V/V water/acetonitrile+0.1% m/V formic acid, (II) a polypropylene insert with 50/50 V/V water/acetonitrile+0.1% m/V formic acid, (III) a glass insert with anti-adsorption diluent Source 1, and (IV) a polypropylene insert with anti-adsorption diluent. The UHPLC-MS/MS method provided in the proof of principle experiment was applied. The experiment was performed in triplicate.
Previous experiments were all conducted using glass inserts. Plastic vials and inserts are also widely used for the chromatography of peptides. Therefore, the applicability of the anti-adsorption diluent was evaluated using a polypropylene insert. The peptide […] (100 ng/mL) was either analyzed using a glass or polypropylene insert with or without anti-adsorption diluent (see FIG. 11).

[5] = Proof of principle (pilot experiment): peptide recovery over time in uncoated glass vial inserts, UHPLC-MS/MS; settings: anti-adsorption diluent Source 1, 100 ng/mL, glass vial insert
Description: The peptide with amino acid sequence […] (SEQ ID No: 1) was stored in uncoated (U)HPLC vial inserts at a concentration of 100 ng/mL in 2 different solvents for a total of approximately 2 h. […] The vials were stored in the UHPLC autosampler compartment during analysis and at 0 min a vial containing solvent 1 and 100 ng/mL peptide was injected onto the UHPLC-MS/MS to serve as reference. The peptide recovery was calculated by dividing the peptide peak area of each time point and condition by the peptide peak area of sample 0 min in solvent 1. Appropriate blank samples were first subjected to the UHPLC-MS/MS for evaluation of interfering substances. This experiment was performed in uniplicate.
UHPLC-MS/MS of peptide […] was conducted with an Acquity H-class quaternary solvent manager, connected to an Acquity Xevo TQ-S triple quadrupole mass spectrometer (Waters, Milford, Mass., USA). The column compartment was kept at 45° C. and the sample compartment at 20° C. Mobile phase A consisted of water/acetonitrile/dimethylsulfoxide 90/5/5 V/V/V supplemented with 0.1% m/V formic acid and mobile phase B consisted of water/acetonitrile/dimethylsulfoxide 5/90/5 V/V/V supplemented with 0.1% m/V formic acid. Chromatography was performed with an Acquity UHPLC BEH300 C18 column (2.1×100 mm, 1.7 μm particle size) (Waters) protected with a suitable guard column. […]

Sequence | Peptide peak area ([1]; 1 nM with anti-adsorption diluent Source 1, glass vial) | Peptide peak area ([1]; 1 nM without anti-adsorption diluent, glass vial) | Additional peaks after 3 h incubation (0.5% reporting threshold) [2] | Peptide peak area after transfer to 5 inserts, as % of peak area without transfer [3] | Increase of peptide peak area with anti-adsorption diluent compared to without [4] | Glass adsorption of the peptide when using the anti-adsorption diluent [5]
EQLSFTSIGILQLLTIGTRSCWFFYCRY (Q49) [Peptide Q49] | 16772.4 | 1363.8 | – | – | – | –
MFPTIPLSRLFDNAMLRAH (Pilot peptide) [pilot experiment peptide] | – | – | No additional peaks | approximately 10% | approximately 30% | completely abolished
